Reference: patent JP2017222678A (dated 2017)

T1: ヒトTFPI (human tissue factor pathway inhibitor; American Diagnostica) (human, UniProt P10646 29-304, limits assumed)
T1 construct: Coated on plates (ELISA) or amine-coupled to a CM5 chip (Biacore); also called h-TFPI; hTFPI
T1 sequence (looked up): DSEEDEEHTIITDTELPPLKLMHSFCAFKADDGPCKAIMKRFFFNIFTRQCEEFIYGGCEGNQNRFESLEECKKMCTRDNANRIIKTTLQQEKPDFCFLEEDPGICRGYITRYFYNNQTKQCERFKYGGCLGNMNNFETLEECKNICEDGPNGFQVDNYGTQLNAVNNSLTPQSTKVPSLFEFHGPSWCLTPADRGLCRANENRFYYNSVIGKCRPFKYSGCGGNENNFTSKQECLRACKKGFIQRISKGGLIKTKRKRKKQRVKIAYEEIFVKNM


Target: T1, ヒトTFPI (human tissue factor pathway …)
Assay: ELISA, Fab in bacterial lysate on coated human TFPI

binding result | Binder
binds | TP-3C2 (Fab, V domains shown, HuCAL Gold human Fab from E. coli TG1) VH: QVQLQQSGPGLVKPSQTLSLTCAISGDSVSSSSAAWSWIRQSPGRGLEWLGMIYYRSKWYNHYAVSVKSRITINPDTSKNQFSLQLNSVTPEDTAVYYCARGGSGVMDVWGQGTLVTVSS VL: DIQMTQSPSSLSASVGDRVTITCRASQSITNYLNWYQQKPGKAPKLLIYDVSNLQSGVPSRFSGSGSGTDFTLTISSLQPEDFAVYYCQQYSGYPLTFGQGTKVEIKR
binds | TP-3G3 (Fab, V domains shown, HuCAL Gold human Fab from E. coli TG1) VH: QVQLVESGGGLVQPGGSLRLSCAASGFTFSSYSMSWVRQAPGKGLEWVSSISSSSSNTYYGDSVKGRFTISRDNSKNTLYLQMNSLRAEDTAVYYCARMHYKGMDIWGQGTLVTVSS VL: DIQMTQSPSSLSASVGDRVTITCRASQNIHSHLNWYQQKPGKAPKLLIYDASSLQSGVPSRFSGSGSGTDFTLTISSLQPEDFAVYYCQQYYDYPLTFGQGTKVEIKR
binds | TP-3C3 (Fab, V domains shown, HuCAL Gold human Fab from E. coli TG1) VH: QVQLQQSGPGLVKPSQTLSLTCAISGDSVSSNSAAWGWIRQSPGRGLEWLGVIYYRSKWYNDYAVSVKSRITINPDTSKNQFSLQLNSVTPEDTAVYYCARARAKKSGGFDYWGQGTLVTVSS VL: DIQMTQSPSSLSASVGDRVTITCRASQSINPYLNWYQQKPGKAPKLLIYAASNLQSGVPSRFSGSGSGTDFTLTISSLQPEDFAVYYCQQLDNRSITFGQGTKVEIKR
binds | TP-2B3 (Fab, V domains shown, HuCAL Gold human Fab from E. coli TG1) VH: QVQLQQSGPGLVKPSQTLSLTCAISGDSVSSNSAAWGWIRQSPGRGLEWLGMIYYRSKWYNSYAVSVKSRITINPDTSKNQFSLQLNSVTPEDTAVYYCARTMSKYGGPGMDVWGQGTLVTVSS VL: DIVLTQSPATLSLSPGERATLSCRASQNIGSNYLAWYQQKPGQAPRLLIYGASTRATGVPARFNGSGSGTDFTLTISSLEPEDFAVYYCQQLNSIPVTFGQGTKVEIKR
binds | TP-2A10 (Fab, V domains shown, HuCAL Gold human Fab from E. coli TG1) VH: QVQLVESGGGLVQPGGSLRLSCAASGFTFTSYSMNWVRQAPGKGLEWVSAISYTGSNTHYADSVKGRFTISRDNSKNTLYLQMNSLRAEDTAVYYCARAFLGYKESYFDIWGQGTLVTVSS VL: DIELTQPPSVSVAPGQTARISCSGDKLGKKYVHWYQQKPGQAPVLVIYGDDKRPSGIPERFSGSNSGNTATLTISGTQAEDEADYYCQAWGSISRFVFGGGTKLTVLG
binds | TP-2A8 (Fab, V domains shown, HuCAL Gold human Fab from E. coli TG1; also called Fab-2A8; TP-2A8-Fab) VH: QVQLVESGGGLVQPGGSLRLSCAASGFTFRSYGMSWVRQAPGKGLEWVSSIRGSSSSTYYADSVKGRFTISRDNSKNTLYLQMNSLRAEDTAVYYCARKYRYWFDYWGQGTLVTVSS VL: DIELTQPPSVSVAPGQTARISCSGDNLRNYYAHWYQQKPGQAPVVVIYYDNNRPSGIPERFSGSNSGNTATLTISGTQAEDEADYYCQSWDDGVPVFGGGTKLTVLG
binds | TP-3H2 (Fab, V domains shown, HuCAL Gold human Fab from E. coli TG1) VH: QVQLVESGGGLVQPGGSLRLSCAASGFTFNSYYMSWVRQAPGKGLEWVSNISSSGSNTNYADSVKGRFTISRDNSKNTLYLQMNSLRAEDTAVYYCARVHYGFDFWGQGTLVTVSS VL: DIELTQPPSVSVAPGQTARISCSGDKLGKYYAYWYQQKPGQAPVLVIYGDSKRPSGIPERFSGSNSGNTATLTISGTQAEDEADYYCSSAAFGSTVFGGGTKLTVLG
binds | TP-3E1 (Fab, V domains shown, HuCAL Gold human Fab from E. coli TG1) VH: QVQLVESGGGLVQPGGSLRLSCAASGFTFSNYAMTWVRQAPGKGLEWVSVISSVGSNTYYADSVKGRFTISRDNSKNTLYLQMNSLRAEDTAVYYCARPTKAGRTWWWGPYMDVWGQGTLVTVSS VL: DIELTQPPSVSVAPGQTARISCSGDNIGSYYAYWYQQKPGQAPVLVIYDDSNRPSGIPERFSGSNSGNTATLTISGTQAEDEADYYCQSYDSTGLLVFGGGTKLTVLG
binds | TP-4A7 (Fab, V domains shown, HuCAL Gold human Fab from E. coli TG1) VH: QVQLVESGGGLVQPGGSLRLSCAASGFTFRNYAMNWVRQAPGKGLEWVSVISGSSSYTYYADSVKGRFTISRDNSKNTLYLQMNSLRAEDTAVYYCARADLPYMVFDYWGQGTLVTVSS VL: DIELTQPPSVSVAPGQTARISCSGDALGSKFAHWYQQKPGQAPVLVIYDDSERPSGIPERFSGSNSGNTATLTISGTQAEDEADYYCQAYDSGLLYVFGGGTKLTVLG
binds | TP-4B7 (Fab, V domains shown, HuCAL Gold human Fab from E. coli TG1) VH: QVQLQQSGPGLVKPSQTLSLTCAISGDSVSSNSAAWSWIRQSPGRGLEWLGIIYKRSKWYNDYAVSVKSRITINPDTSKNQFSLQLNSVTPEDTAVYYCARWHSDKHWGFDYWGQGTLVTVSS VL: DIVMTQSPLSLPVTPGEPASISCRSSQSLVFSDGNTYLNWYLQKPGQSPQLLIYKGSNRASGVPDRFSGSGSGTDFTLKISRVEAEDVGVYYCQQYDSYPLTFGQGTKVEIKR
binds | TP-3C1 (Fab, V domains shown, HuCAL Gold human Fab from E. coli TG1; Shares its VL entry with TP-2G9 and its VH entry with TP-3F2, as the legends print it) VH: QVQLVESGGGLVQPGGSLRLSCAASGFTFSSYSMHWVRQAPGKGLEWVSGISYSSSFTYYADSVKGRFTISRDNSKNTLYLQMNSLRAEDTAVYYCARALGGGVDYWGQGTLVTVSS VL: DIALTQPASVSGSPGQSITISCTGTSSDLGGFNTVSWYQQHPGKAPKLMIYSVSSRPSGVSNRFSGSKSGNTASLTISGLQAEDEADYYCQSYDLNNLVFGGGTKLTVLG
binds | TP-3F2 (Fab, V domains shown, HuCAL Gold human Fab from E. coli TG1) VH: QVQLVESGGGLVQPGGSLRLSCAASGFTFSSYSMHWVRQAPGKGLEWVSGISYSSSFTYYADSVKGRFTISRDNSKNTLYLQMNSLRAEDTAVYYCARALGGGVDYWGQGTLVTVSS VL: DIELTQPPSVSVAPGQTARISCSGDNLPSKSVYWYQQKPGQAPVLVIYGDNNRPSGIPERFSGSNSGNTATLTISGTQAEDEADYYCQSWTSRPMVVFGGGTKLTVLG
binds | TP-3G1 (Fab, V domains shown, HuCAL Gold human Fab from E. coli TG1) VH: QVQLQQSGPGLVKPSQTLSLTCAISGDSVSSNSGGWGWIRQSPGRGLEWLGLIYYRSKWYNAYAVSVKSRITINPDTSKNQFSLQLNSVTPEDTAVYYCARYLGSNFYVYSDVWGQGTLVTVSS VL: DIQMTQSPSSLSASVGDRVTITCRASQGISSYLHWYQQKPGKAPKLLIYGASTLQSGVPSRFSGSGSGTDFTLTISSLQPEDFATYYCQQQNGYPFTFGQGTKVEIKR
binds | TP-2B1 (Fab, V domains shown, HuCAL Gold human Fab from E. coli TG1) VH: QVQLVESGGGLVQPGGSLRLSCAASGFTFSSYSMSWVRQASGKGLEWVSSIKGSGSNTYYADSVKGRFTISRDNSKNTLYLQMNSLRAEDTAVYYCARNGGLIDVWGQGTLVTVSS VL: DIELTQPPSVSVAPGQTARISCSGDNLGNKYAHWYQQKPGQAPVLVIYYDNKRPSGIPERFSGSNSGNTATLTISGTQAEDEADYYCQSWTPGSNTMVFGGGTRLTVLG
binds | TP-2B4 (Fab, V domains shown, HuCAL Gold human Fab from E. coli TG1) VH: QVQLVESGGGLVQPGGSLRLSCAASGFTFSNYSMTWVRQAPGKGLEWVSGISYNGSNTYYADSVKGRFTISRDNSKNTLYLQMNSLRAEDTAVYYCARIYYMNLLAGWGQGTLVTVSS VL: DIELTQPPSVSVAPGQTARISCSGDALGTYYAYWYQQKPGQAPVLVIYGDMNRPSGIPERFSGSNSGNTATLTISGTQAEDEADYYCQSYDAGVKPAVFGGGTKLTVLG
